From patent US7038020 (ZLB BIOPLASMA, dated 2006)

T1: Rhesus D antigen (human, UniProt Q02161 2-417)
T1 construct: whole, on cells; R1R1 cells also carry C and e; also called RhD; on rbc R1R1 (CDe/CDe, CCDDee)
T1 sequence (looked up): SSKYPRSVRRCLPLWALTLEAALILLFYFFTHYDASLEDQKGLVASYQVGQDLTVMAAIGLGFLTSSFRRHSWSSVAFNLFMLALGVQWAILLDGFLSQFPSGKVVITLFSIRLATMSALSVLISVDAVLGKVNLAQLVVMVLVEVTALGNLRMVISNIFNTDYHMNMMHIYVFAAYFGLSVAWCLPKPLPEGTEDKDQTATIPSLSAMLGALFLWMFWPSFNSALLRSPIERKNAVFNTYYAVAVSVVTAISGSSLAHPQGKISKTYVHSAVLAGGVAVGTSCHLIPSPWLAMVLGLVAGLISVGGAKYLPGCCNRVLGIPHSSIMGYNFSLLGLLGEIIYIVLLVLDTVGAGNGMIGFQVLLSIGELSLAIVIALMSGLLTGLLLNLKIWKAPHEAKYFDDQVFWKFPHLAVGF

T2: Rhesus negative rbc, phenotype ccddee (Rhesus c and e antigens, no D) (human, UniProt P18577 2-417)
T2 construct: whole, on cells; the thing tested is the whole red cell; also called rr
T2 sequence (looked up): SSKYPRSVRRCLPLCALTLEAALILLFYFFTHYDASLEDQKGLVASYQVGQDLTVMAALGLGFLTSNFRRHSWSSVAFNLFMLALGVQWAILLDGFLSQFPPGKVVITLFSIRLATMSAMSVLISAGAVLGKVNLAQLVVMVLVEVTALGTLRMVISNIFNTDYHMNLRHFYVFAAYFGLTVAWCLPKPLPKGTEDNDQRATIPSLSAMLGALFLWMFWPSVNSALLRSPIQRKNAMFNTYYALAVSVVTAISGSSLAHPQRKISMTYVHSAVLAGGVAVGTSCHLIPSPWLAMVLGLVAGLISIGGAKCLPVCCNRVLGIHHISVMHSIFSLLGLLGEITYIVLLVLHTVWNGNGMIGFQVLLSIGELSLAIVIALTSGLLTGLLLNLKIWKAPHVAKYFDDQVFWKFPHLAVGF


How the values were obtained:
[1] = target: T1, Rhesus D antigen; assay: haemagglutination, rbc
[2] = target: T1, Rhesus D antigen; assay: indirect haemagglutination, Fab fragment, rbc R1R1
[3] = target: T2, Rhesus negative rbc, phenotype ccddee …; assay: indirect haemagglutination, Fab fragment, rbc rr
[4] = target: T1, Rhesus D antigen; assay: indirect haemagglutination, rbc CCDDee
[5] = target: T2, Rhesus negative rbc, phenotype ccddee …; assay: indirect haemagglutination, rbc ccddee

| Binder | binding result [1] | other results |
| --- | --- | --- |
| Fab clone LD2-17 (Fab, V domains shown, human soluble Fab from pComb3 in E. coli) VH: QVKLLESGGGVVQPGGSLRLSCVASGFTFRSYGMHWVRQAPGKGLEWVAFIWFDGSNKGYVDSVKGRFTISRDNSKNTLYLQMKSLRAEDTAVYYCAREKALRGISRYNYYLDVWGKGTTVTVSS VL: VMTQSPFSLSASVGDRVTITCRASQNIRSFLSWYQQKPGTAPKLLIYAASRLQSGVPSRFSGSGSGTDFTLTISTLQPEDFATYYCQQSYSAPWTFGQGTKLEIK | binds | – |
| Fab clone LD2-5 (Fab, V domains shown, human soluble Fab from pComb3 in E. coli) VH: QVKLLESGGGLVQPGGSLRLSCVASGFTFRSYGMHWVRQAPGKGLEWVAFIWFDGSNKGYVDSVKGRFTISRDNSKNMLYLQMNSLRAEDTAVYYCAREKALRGISRYNYYLDVWGKGATVTVSS VL: VMTQSPSSLSASIGDRVTITCRASQSVTRSLNWYQQKPGKAPRLLIFAASTLQSGVPSRFSGSGSGTDFTLTISSLQPEDFGTYYCQQNYRTPQWTFGQGTKVEIK | binds | – |
| Fab clone LD2-20 (Fab, V domains shown, human soluble Fab from pComb3 in E. coli) VH: QVKLLESGGGVVQPGGSLRLSCVASGFTSRSYGMHWVRQAPGKGLEWVAFIWFDGSNKGYVDSVKGRFTISRDNSKNTLYLQMKSLRAEDTAVYYCAREKALRGISRYNYYLDVWGKGTTVTVSS VL: not shown | binds | – |
| Fab clone LD1-117 (Fab, V domains shown, human soluble Fab from pComb3 in E. coli) VH: QVKLLESGGGVVQPGKSLRLSCAASGFSFNSHGMHWVRQAPGKGLEWVAFIWFDGSNKYYADSVKGRFTITRDNSKNTLYLQMNSLRAEDTAVYYCARETSVRLGYSRYNYYMDVWGKGTTVTISS VL: VMTQSPSSLSASVGDRVTITCRASQSIRSHLNWYQQKPGKAPKLLIYAASSLQGGVPSRFSGSGSGTDFTLTISSLQPEDFATYYCQQSYRAPQWTFGQGTKVEIK | binds | – |
| Fab clone LD2-14 (Fab, V domains shown, human soluble Fab from pComb3 in E. coli) VH: QVKLLESGGGVVQPGGSLRVACVASGFTFRNFGMHWVRQAPGKGLEWVAFIWFDASNKGYGDSVKGRFTVSRDNSKNTLYLQMNGLRAEDTAVYYCAREKAVRGISRYNYYMDVWGKGTTVTVSS VL: VMTQSPSSLSASVGDRVTITCRASQSIINNLNWYQQKPGKAPELLIYAASSLQSGVPSRFRGSGSGRDFTLTVTSLQPEDFATYYCQQSYSTLWTFGQGTKVEIK | – | binding result [2]: binds; binding result [3]: no binding |
| Fab clone LD1/2-6-3 (Fab, V domains shown) VH: QVKLLESGGGVVQPGGSLRVACVASGFTFRNFGMHWVRQAPGKGLEWVAFIWFDASNKGYGDSVKGRFTVSRDNSKNTLYLQMNGLRAEDTAVYYCAREKAVRGISRYNYYMDVWGKGTTVTVSS VL: VMTQSPSSLSASVGDRVTITCRASQSIIRYLNWYQHKPGKAPKLLIHTASSLQSGVPSRFSGSVSGTDFTLTISSLQPEDFATYYCQQSYTTPYTFGQGTKLQIK | – | binding result [4]: binds; binding result [5]: no binding |
| Fab clone LD1/2-6-33 (Fab, V domains shown) VH: QVKLLESGGGVVQPGGSLRVACVASGFTFRNFGMHWVRQAPGKGLEWVAFIWFDASNKGYGDSVKGRFTVSRDNSKNTLYLQMNGLRAEDTAVYYCAREKAVRGISRYNYYMDVWGKGTTVTVSS VL: VMTQSPSFLSASVGDRVTITCRASQSIIRYLNWYQHKPGKAPKLLIHAASSLQSGVPSRFSGSVSGTDFTLTISSLQPEDFATYYCQQSYTTPYTFGQGTKLQIK | – | binding result [4]: binds; binding result [5]: no binding |
| Fab clone LD1-40 (Fab, V domains shown, human soluble Fab from pComb3 in E. coli) VH: QVKLLESGGGVVQPGRSLRLSCIASGFTLRNYAMHWVRQAPGKGLEWVAGIWFDGSNKNYADSVKGRFTISRDNSKNTLYLQLNSLRDEDTAVYYCARERAARGISRFYYYMDVWGKGTTVTVSP VL: VMTQSPSSLSASVGDRVTITCRASQSIRSHLNWYQQKPGKAPKLLIYGASTLQSGVPSRFSGSGSGAVFTLTIASLQPEDFATYYCQESYSNPLITFGQGTRLETK | binds | – |
| Fab clone LD1-110 (Fab, V domains shown, human soluble Fab from pComb3 in E. coli) VH: QVKLLESGGGVVQPGRSLRLSCIASGFTLRNYAMHWVRQAPGKGLEWVAGIWFDGSNKNYADSVKGRFTISRDNSKNTLFLHMNSLRAEDTATYYCARERAIRGISRYNYYMDVWGKGTTVTVSS VL: VMTQSPSSLSASVGDRVTITCRASQSIRSSLNWYQQKPGKAPKVLIYAASSLQSGVPSRFSGRGSGTDFTLTISSLQPEDFATYYCQQSSSSSWTFGQGTKVEIK | binds | – |
| Fab clone LD2-11 (Fab, V domains shown, human soluble Fab from pComb3 in E. coli) VH: QVKLLESGGGVVQPGGSLRLSCEASGFTLRSSGMHWVRQAPGKGLEWVALIWFDGSIRSYAESVKGRFTISRDTSKNTLYLQMRSLSADDTAVYYCARDKAVRGISRYNYYMDVWGKGTTVTVSS VL: VLTQSPSSLSASIRDRVTITCRASQNIGSYLNWYQHKPGTAPKLLIYAVSALQSGVPSRFSGSRSGTDFTLTISSLQPEDFATYYCQQSYSPPYTFGQGTNLQIK | binds | – |
| Fab clone LD1-84 (Fab, V domains shown, human soluble Fab from pComb3 in E. coli) VH: QVKLLESGGGVVQPGGSLRLSCEASGFTLRSSGMHWVRQAPGKGLEWVALIWFDGSIRSYAESVKGRFTISRDTSKNTLYLQMRSLSADDTAVYYCARDKAVRGISRYNYYMDVWGKGTTVTVSS VL: VMTQSPSSLSASIGDRVTITCRASQSIIRYLNWYQHKPGKAPKLLIFAASNLQTGVPSRFSGSGSGTDFTLTISDLQPEDFATYYCQQSYSRPFTFGRGTSLDIK | binds | – |
| Fab clone LD1-52 (Fab, V domains shown, human soluble Fab from pComb3 in E. coli) VH: QVKLLESGGGVVQPGGSLRLSCEASGFALRSSGMHWVRQAPGKGLEWVALIWFDGSIRSYAESVKGRFTISRDTSKNTLYLQMRSLSADDTAVYYCARDKAVRGISRYNYYMDVWGKGTTVTVSS VL: VMTQSPSSLSASVGDRVTITCRASQNIIRYLNWYQQKPGKAPRLLIYGASTLQSGVPSRFSGSGSGTDFTLTISSLQPEDFATYYCQQSYRTPPFTFGPGTKVEIK | binds | – |
| Fab clone LD2-4 (Fab, V domains shown, human soluble Fab from pComb3 in E. coli) VH: QVKLLESGGGVVQPGGSLRLSCEASGFTLRSSGMHWVRQAPGKGLEWVALIWFDGSIRSYAESVKGRFTISRDTSKNTLYLQMRSLSADDTAVYYCARDKAVRGISRYNYYMDVWGKGTTVTVSS VL: VMTQSPSSLSASVGDRVTITCRTSQTISRNLNWYQQKPGKAPKLLIYATSSLQSGVPSRFSGSGSGTDFTLTINSLQPEDFATYYCQQSYTTPSFGQGTKVEIK | binds | – |
